The test system of one data set is U937-CD200R cells. The data set is described as follows: Cytokine release (IL-6 inhibition) assay, LPS stimulated U937-CD200R cells. It is filed as cell-based, human. Here is the method:
Cytokine production, including IL-6, from these cells can be induced by stimulation with PMA and then LPS.
50,000 U937 cells per well were seeded in 96 well plates and differentiated following incubation for 72 hours with 100 nM PMA. Following differentiation, the PMA containing media was replaced with fresh assay media and incubated for a further 2 hours prior to treatment. CD200-Fc constructs were added with or without Fc block to the cell culture and incubated for 1 hour, then cells were stimulated with 100 ng/ml LPS and incubated for a further 24 hours. Following the final incubation, cell supernatant (diluted 1:10) was collected and assayed for IL-6 secretion by ELISA assay using a commercially available kit.
Cell line construction, cytokine inhibition testing, and cell binding testing were conducted using similar techniques as in Example 3 above.

Data set [1] can be described thus: PK study in serum of cynomolgus monkeys. It is filed as in vivo. Particulars: 5 mg/kg i.v. bolus; for AUC 0-t: t = 28 days. Here is the method: 2 cynomolgus monkeys per group (one male, one female) were dosed at 5 mg/kg with an i.v. bolus of protein at time 0. Blood samples were taken for PK analysis at the following timepoints: pre-dose, 0.25 hr, 0.5 hr, 1 hr, 4 hr, 8 hr, 24 hr, day 3, day 5, day 7, day 10, day 12, day 14, day 21, day 28.
At least 0.8 mL blood samples were collected from a cephalic or saphenous vein at sampling time points from the two animals. For samples collected within the first hour of dosing, a ±1 minute deviation in sample collection time was acceptable. For the remaining time points, samples that were taken within 5% of the scheduled time are acceptable. All blood samples were collected into commercially available tubes containing coagulant. The tubes containing blood samples remained at room temperature for 30 minutes before centrifugation. The samples were centrifuged at 4° C. for 10 minutes at 1500×g within one hour of collection. About 400 μL serum per time point was collected post centrifugation. The samples were then quickly frozen over dry ice and kept at −60° C. or lower until transferred in dry ice for analysis. All samples were uniquely identified to indicate origin and collection time.
The concentrations of analyte in serum were determined using a bioanalytical ELISA method. 96-well ELISA plates were coated overnight at 4° C. with 1 μg/ml Goat anti-Human IgG in Carbonate-bicarbonate buffer. After wash and blocking, serial diluted plasma samples were added and then biotin labeled Goat anti-human IgG (0.0625 ug/mL) was used as detection antibody. HRP-Streptavidin and TMB substrate were used for colour development. The reaction was stopped after approximately 5-10 minutes through the addition of 2M HCl. The absorbance was read at 450 nm and 540 nm using a microplate spectrophotometer (SpectraMax® M5e). The OD value of the samples were substituted into the standard curve to obtain the plasma concentration. The detection limit of this ELISA method LLOQ for Fc+Fc is 1 ng/mL.
The serum concentration of ARQ-234 in monkeys was subjected to a non-compartmental pharmacokinetic analysis by using the Phoenix WinNonlin software (version 8.1, Pharsight, Mountain View, CA). The linear/log trapezoidal rule was applied in obtaining the PK parameters.

In the case of “ARQ-234: mutated human CD200-Fc fusion protein: CD200 K130Y, I131Y directly fused to IgG4 Fc S228P, M428L, N434S”, the “inhibition of LPS stimulated IL-6 release” value in the data set with U937-CD200R cells (PMA differentiated U937-CD200R cells, 100 ng/ml LPS, 24 hours, ELISA) is “able to inhibit LPS stimulated IL-6 secretion in a concentration dependent manner”. The “effect of Fc block on inhibition of IL-6 release” value with U937-CD200R cells (with versus without Fc block reagent) was “No significant difference in inhibition”. For the same substance, the “average half-life in the two animals tested” value in data set [1] (serum) amounted to 15.44 days. In data set [1] (animal #3001 (M)), the “Cl_obs” value is 7.45 mL/day/kg, the “MRTINF_obs” value was found to be 17.3 days, the “Vss_obs” value came out at 0.129 L/kg and the “AUC 0-t” value was found to be 12927 µg·h/mL. In data set [1] (animal #3001 (M), serum), the “Cmax” value is 127 µg/mL and the “t1/2” value was 12.4 days. Also, in data set [1] (animal #3002 (F)), the “Cl_obs” value was determined as 6.56 mL/day/kg, the “MRTINF_obs” value stood at 25.3 days, the “Vss_obs” value was 0.166 L/kg and the “AUC 0-t” value was 12259 µg·h/mL. In addition, the highest concentration (Cmax) in data set [1] (animal #3002 (F), serum) turned out to be 124 µg/mL. For the same substance, in data set [1] (animal #3002 (F), serum, footnote: half-life not accurate (AUC_%Extrap_obs >20% or Rsq_adjusted <0.9)), the “t1/2 (h)” value is 443^ h.

The values are drawn from patent publication US20260116946A1, “NOVEL CD200 FUSION PROTEINS” (DUCENTIS BIOTHERAPEUTICS LIMITED, priority 2022, published 2026).
